In article PMC4155688, “Mapping the Putative G Protein-coupled Receptor (GPCR) Docking Site on GPCR Kinase 2” (The Journal of Biological Chemistry, 2014):
Residue numbers refer to the chain shown, from its start. In names and notes the source's numbering stands. Each block holds one binder with its values, some of them ahead of it.

What was measured:
α2AAR-GFP^2 [1] = target: T1, α2AAR-GFP^2 (UniProt P08913 1-465); assay: FRET or BRET; living HEK293T cells co-transfected with α2AAR-GFP^2 and RlucII-GRK2; dose-response to norepinephrine read 6 min after addition; NOR-promoted BRET fitted to biphasic (two-site) curves with a high-affinity and a low-affinity component; conditions: partners not purified
T1 construct: α2A-adrenergic receptor; also called α2A-adrenergic receptor; source: HEK293T, transfected, in living cells; not shown: GFP^2, C-terminal (from the name α2AAR-GFP^2), kept
T1 sequence (looked up): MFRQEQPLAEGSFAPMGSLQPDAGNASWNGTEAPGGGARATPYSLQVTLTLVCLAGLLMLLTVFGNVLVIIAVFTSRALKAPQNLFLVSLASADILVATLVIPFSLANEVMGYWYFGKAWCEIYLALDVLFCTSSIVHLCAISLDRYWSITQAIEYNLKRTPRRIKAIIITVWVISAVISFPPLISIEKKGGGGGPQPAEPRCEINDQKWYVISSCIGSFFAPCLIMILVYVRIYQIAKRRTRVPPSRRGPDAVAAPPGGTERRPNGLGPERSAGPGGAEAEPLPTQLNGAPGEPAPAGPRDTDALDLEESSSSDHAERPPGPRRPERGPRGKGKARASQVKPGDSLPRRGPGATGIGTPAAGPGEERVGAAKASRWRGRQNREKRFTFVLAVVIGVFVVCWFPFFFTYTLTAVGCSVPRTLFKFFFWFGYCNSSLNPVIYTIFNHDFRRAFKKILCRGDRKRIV

α2AAR-GFP^2 [2] = target: T1, α2AAR-GFP^2; assay: FRET or BRET; living HEK293T cells co-transfected with α2AAR-GFP^2 (acceptor) and RlucII-GRK2 (donor); in PBS at room temperature, with or without 100 μM norepinephrine (one-point and titration: 6 min; time course); coelenterazine 400A 5 μM; net or agonist-promoted BRET; conditions: partners not purified

B1: RlucII-GRK2 (wild type) (enzyme, human, UniProt P25098 1-689, looked up)
chain: MADLEAVLADVSYLMAMEKSKATPAARASKKILLPEPSIRSVMQKYLEDRGEVTFEKIFSQKLGYLLFRDFCLNHLEEARPLVEFYEEIKKYEKLETEEERVARSREIFDSYIMKELLACSHPFSKSATEHVQGHLGKKQVPPDLFQPYIEEICQNLRGDVFQKFIESDKFTRFCQWKNVELNIHLTMNDFSVHRIIGRGGFGEVYGCRKADTGKMYAMKCLDKKRIKMKQGETLALNERIMLSLVSTGDCPFIVCMSYAFHTPDKLSFILDLMNGGDLHYHLSQHGVFSEADMRFYAAEIILGLEHMHNRFVVYRDLKPANILLDEHGHVRISDLGLACDFSKKKPHASVGTHGYMAPEVLQKGVAYDSSADWFSLGCMLFKLLRGHSPFRQHKTKDKHEIDRMTLTMAVELPDSFSPELRSLLEGLLQRDVNRRLGCLGRGAQEVKESPFFRSLDWQMVFLQKYPPPLIPPRGEVNAADAFDIGSFDEEDTKGIKLLDSDQELYRNFPLTISERWQQEVAETVFDTINAETDRLEARKKAKNKQLGHEEDYALGKDCIMHGYMSKMGNPFLTQWQRRYFYLFPNRLEWRGEGEAPQSLLTMEEIQSVEETQIKERKCLLLKIRGGKQFILQCDSDPELVQWKKELRDAYREAQQLVQRVPKMKNKPRSPVVELSKVPLVQRGSANGL
notes: G protein-coupled receptor kinase 2 (GRK2), human; also called luciferase-GRK2; WT RlucII-GRK2; source: HEK293T, transfected, in living cells
EC50,L of norepinephrine (low-affinity component of the biphasic BRET curve) (α2AAR-GFP^2 [1]): 7.9 µM

B2: RlucII-GRK2 V7A (enzyme, human, UniProt P25098 1-689, looked up)
chain: B1 chain with V7A
notes: GRK2, human; source: HEK293T, transfected, in living cells
percent reduction of the agonist-promoted BRET relative to WT (α2AAR-GFP^2 [2]): ~55%

B5: RlucII-GRK2 S12A (enzyme, human, UniProt P25098 1-689, looked up)
chain: B1 chain with S12A
notes: as for B2
fold potentiation of the total agonist-induced BRET relative to WT (α2AAR-GFP^2 [2]): 2 fold | fold stimulation of the low-affinity BRET component relative to WT (α2AAR-GFP^2 [1]): 2.6 fold

B7: RlucII-GRK2 D317A (enzyme, human, UniProt P25098 1-689, looked up)
chain: B1 chain with D317A
notes: GRK2, human; catalytically inert mutant; source: HEK293T, transfected, in living cells
fold recruitment (agonist-promoted BRET) relative to WT (α2AAR-GFP^2 [2]): 2 fold

B9: RlucII-GRK2 R195A (enzyme, human, UniProt P25098 1-689, looked up)
chain: B1 chain with R195A
notes: as for B2
percent reduction of the agonist-promoted BRET signal relative to WT (α2AAR-GFP^2 [2]): 60% | percent reduction of the low-affinity BRET component relative to WT (α2AAR-GFP^2 [1]): ~60%

B10: RlucII-GRK2 A16V (enzyme, human, UniProt P25098 1-689, looked up)
chain: B1 chain with A16V
notes: as for B2
percent reduction of the agonist-promoted BRET relative to WT (α2AAR-GFP^2 [2]): ~55%

B11: RlucII-GRK2 R587Q (enzyme, human, UniProt P25098 1-689, looked up)
chain: B1 chain with R587Q
notes: as for B2
percent reduction of the NOR-promoted BRET signal relative to WT (α2AAR-GFP^2 [2]): 90%

B13: RlucII-GRK2 L4A (enzyme, human, UniProt P25098 1-689, looked up)
chain: B1 chain with L4A
notes: as for B2
percent reduction of the agonist-promoted BRET relative to WT (α2AAR-GFP^2 [2]): ~55% | percent reduction of the low-affinity BRET component relative to WT (α2AAR-GFP^2 [1]): ~70%

B14: RlucII-GRK2 L8E (enzyme, human, UniProt P25098 1-689, looked up)
chain: B1 chain with L8E
notes: as for B2
percent reduction of the agonist-promoted BRET relative to WT (α2AAR-GFP^2 [2]): ~55%

B16: RlucII-GRK2 M17A (enzyme, human, UniProt P25098 1-689, looked up)
chain: B1 chain with M17A
notes: as for B2
percent reduction of the agonist-promoted BRET relative to WT (α2AAR-GFP^2 [2]): ~55%

Further lines, results first:

percent reduction of receptor recruitment (agonist-promoted BRET) relative to WT (α2AAR-GFP^2 [2]): 69%
B3: RlucII-GRK2 V7E/L8E (enzyme, human, UniProt P25098 1-689, looked up)
chain: B1 chain with V7E, L8E
notes: as for B2

percent inhibition of the high-agonist concentration BRET signal relative to WT (α2AAR-GFP^2 [1]): 74%
B4: RlucII-GRK2 V477D (enzyme, human, UniProt P25098 1-689, looked up)
chain: B1 chain with V477D
notes: as for B2

percent reduction of the agonist-promoted BRET relative to WT (α2AAR-GFP^2 [2]): ~55% | percent reduction of the low-affinity BRET component relative to WT (α2AAR-GFP^2 [1]): ~70%
B6: RlucII-GRK2 Y13A (enzyme, human, UniProt P25098 1-689, looked up)
chain: B1 chain with Y13A
notes: as for B2

percent reduction of receptor recruitment (agonist-promoted BRET) relative to WT (α2AAR-GFP^2 [2]): 60%
B8: RlucII-GRK2 V7P (enzyme, human, UniProt P25098 1-689, looked up)
chain: B1 chain with V7P
notes: as for B2

percent reduction of the agonist-promoted BRET relative to WT (α2AAR-GFP^2 [2]): ~55%
B12: RlucII-GRK2 V7E (enzyme, human, UniProt P25098 1-689, looked up)
chain: B1 chain with V7E
notes: as for B2

percent reduction of the agonist-promoted BRET relative to WT (α2AAR-GFP^2 [2]): ~55%
B15: RlucII-GRK2 V11A (enzyme, human, UniProt P25098 1-689, looked up)
chain: B1 chain with V11A
notes: as for B2
